Data set [1] concerns Recombinant Human CYP19A1 Allozymes. Kind of data set: CYP19A1 enzyme activity of recombinant allozymes (3H2O release from [1β3H]androst-4-ene-3,17-dione, COS-1 microsomes). In kind it is biochemical. The settings on record: 20 nM androstenedione substrate, corrected for transfection efficiency, 6 independent transfections.
Data set [2] shares this test system. Kind of data set: Substrate kinetics: apparent Km of recombinant CYP19A1 allozymes with androstenedione. In kind it is biochemical. Particulars: androstenedione as substrate; COS-1 microsomes.

Results on two molecules are retold here after patent publication US20070037177A1, “CYP19A1 polymorphisms” (priority 2005, published 2007).

Substitutions are numbered along the chain they refer to.

B1: Cys264: "a CYP19A1 polypeptide (Arg264Cys) having a cysteine at amino acid residue 264" (protein, UniProt P11511 1-503, looked up, variant R264C)
Aromatase: MVLEMLNPIHYNITSIVPEAMPAATMPVLLLTGLFLLVWNYEGTSSIPGPGYCMGIGPLISHGRFLWMGIGSACNYYNRVYGEFMRVWISGEETLIISKSSSMFHIMKHNHYSSRFGSKLGLQCIGMHEKGIIFNNNPELWKTTRPFFMKALSGPGLVRMVTVCAESLKTHLDRLEEVTNESGYVDVLTLLRRVMLDTSNTLFLRIPLDESAIVVKIQGYFDAWQALLIKPDIFFKISWLYKKYEKSVKDLKDAIEVLIAEKRCRISTEEKLEECMDFATELILAEKRGDLTRENVNQCILEMLIAAPDTMSVSLFFMLFLIAKHPNVEEAIIKEIQTVIGERDIKIDDIQKLKVMENFIYESMRYQPVVDLVMRKALEDDVIDGYPVKKGTNIILNIGRMHRLEFFPKPNEFTLENFAKNVPYRYFQPFGFGPRGCAGKYIAMVMMKAILVTLLRRFHVKTLQGQCVESIQKIHDLSLHPDETKNMLEMIFTPRNSDRCLEH
For the molecule B1, the “% WT activity” value in data set [1] is listed as 72%.

B2: Thr364: "a CYP19A1 polypeptide having a threonine at amino acid residue 364. This polypeptide (Met(364)Thr) would be considered an allozyme" (protein, UniProt P11511 1-503, looked up, variant M364T)
Aromatase: B1 Aromatase with C264R, M364T
Consider B2, for which the “Apparent Km” value in data set [2] is reported as “elevated”.
